The results in this text go back to patent US20120027763A1 (TRANSGENE BIOTEK, published 2012).

This experiment deals with T1, TNFRSF17-epag.
T1 construct: also called TNFRS17-epag
T1 peptide: KSRTGDEIILPRGLC
The experiment is described as follows: screening of ascites mAbs by specific Ag binding activity, after immunization with SEQ ID NO:2.

B1: TBL-CLN1 (antibody, V domains shown)
VH: EVKLVESGGGLVKPGGSLKLSCAASGITFSTYAMSWVRQTPEKRLEWVASITTGGNVYFPDSVKGRFTISRDNARNILYLQMSSLRSEDTAMYYCAGGITATRGTFAYWGQGTTLTVSS
VL: DVLMTQTPLSLPVSLGDQASISCRSSQSIGHSNGITYLEWYLQKPGQSPKLLIYKVSNRFSGVPDRFSGSGSGTDFTLKISRVEAEDLGVYYCFEGSHVPLTFGAGTKLELKR
notes: also called TBL-CLNI
In the case of B1, the binding result is reported as “binds”.
